We go through two molecules from PMC11927390 (Cancer Research Communications, 2025).

Holding throughout (conditions): both partners purified
The target in assay [1] is T1, human ULBP6-02 extracellular domain (residues R26-G218) (human, UniProt Q5VY80 26-218, glycosylation of residues N68 and N82 (in the crystal structure)).
T1 construct: the construct of the SPR with NKG2D and of the cell assays is only called ULBP6-02 or recombinant ULBP6-02; also called sULBP6-02; sULBP6; source: recombinant, 23andMe, Inc; mammalian expression system
T1 sequence (looked up): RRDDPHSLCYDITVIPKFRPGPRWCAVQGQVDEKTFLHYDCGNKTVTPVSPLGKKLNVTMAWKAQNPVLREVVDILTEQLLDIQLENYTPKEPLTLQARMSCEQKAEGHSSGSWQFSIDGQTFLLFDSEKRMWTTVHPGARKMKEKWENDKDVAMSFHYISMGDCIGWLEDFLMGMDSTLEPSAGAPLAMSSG
Put plainly: SPR; Biacore 8K or 8K+, 37°C; Fc-tagged human NKG2D (0.5 μg/mL) captured on Series S Sensor Protein A chip to about 25 RU; threefold serial dilutions of NKG2DLs injected at 30 μL/minute in HBS-P (0.01 mol/L HEPES pH 7.4, 0.15 mol/L NaCl, 0.005% P20); KD from steady-state fit. A general note: In SPR one partner is held on a chip, and binding of the other changes the refractive index at the surface.

Another assay has as its target biotinylated ULBP6-02 (human, UniProt Q5VY80, biotin). Put plainly: ELISA; blocking assay: plates coated with Fc-tagged NKG2D; biotinylated ULBP5 (1.55 nmol/L) or ULBP6-02 (0.15 nmol/L) at its EC80 precomplexed with 23ME-01473 and transferred to the plates; IC50 from dose-response fit. In general terms: An ELISA detects its analyte on a solid surface through an enzyme-linked reagent.

The next assay concerns the target biotinylated ULBP5 (human, UniProt Q6H3X3, biotin). Described as above.
In a further assay the target is human ULBP5 (Homo sapiens (Human)., UniProt Q6H3X3). The assay can be described thus: SPR; 23ME-01473 and human ULBPs, as described for NKG2D (Biacore, 37°C, Protein A chip, HBS-P, ligands injected); one-to-one Langmuir model, KD = kd/ka.
Chain of human ULBP5 (Q6H3X3 26-218): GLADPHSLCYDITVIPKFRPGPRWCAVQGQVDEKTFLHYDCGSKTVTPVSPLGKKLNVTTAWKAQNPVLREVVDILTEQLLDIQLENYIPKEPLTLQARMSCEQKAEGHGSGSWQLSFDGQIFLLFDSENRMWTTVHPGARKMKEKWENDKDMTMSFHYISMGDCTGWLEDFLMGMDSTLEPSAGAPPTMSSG
Assay [2] concerns the target human ULBP6 (allelic isoform not stated) (Homo sapiens, ULBP6-02 allele (R26, …, UniProt Q5VY80)). The assay is described as above.
The target in a further assay is human ULBP1 (Homo sapiens (Human)., UniProt Q9BZM6). Described as above.
Chain of human ULBP1 (Q9BZM6 26-216): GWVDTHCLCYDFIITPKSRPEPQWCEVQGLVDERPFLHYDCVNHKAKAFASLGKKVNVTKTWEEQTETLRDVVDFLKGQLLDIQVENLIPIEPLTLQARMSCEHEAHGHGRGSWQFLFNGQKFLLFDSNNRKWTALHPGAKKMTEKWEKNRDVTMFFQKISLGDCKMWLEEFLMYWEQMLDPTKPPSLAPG
A further assay has as its target human ULBP2 (Homo sapiens (Human)., UniProt Q9BZM5). The assay is described as above.
A further assay addresses human ULBP3 (Homo sapiens (Human)., UniProt Q9BZM4). The description is as above.

Chain of biotinylated ULBP5 (Q6H3X3 26-218): as the sequence (Q6H3X3 26-218) above
Chain of human ULBP3 (Q9BZM4 30-217): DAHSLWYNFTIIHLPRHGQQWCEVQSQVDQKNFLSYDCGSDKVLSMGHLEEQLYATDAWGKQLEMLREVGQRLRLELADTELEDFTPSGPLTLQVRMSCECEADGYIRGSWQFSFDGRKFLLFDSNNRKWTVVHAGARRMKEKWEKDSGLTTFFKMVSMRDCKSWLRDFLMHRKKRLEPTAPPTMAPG
Chain of human ULBP2 (Q9BZM5 26-217): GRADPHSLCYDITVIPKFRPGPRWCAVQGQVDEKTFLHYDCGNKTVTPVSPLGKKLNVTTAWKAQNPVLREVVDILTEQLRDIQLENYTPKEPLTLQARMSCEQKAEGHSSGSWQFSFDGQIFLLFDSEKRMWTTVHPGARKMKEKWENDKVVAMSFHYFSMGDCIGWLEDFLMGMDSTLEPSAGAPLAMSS

B1: Fc-tagged human NKG2D (Fc fusion, UniProt P26718 73-216, looked up)
chain: IWSAVFLNSLFNQEVQIPLTESYCGPCPKNWICYKNNCYQFFDESKNWYESQASCMSQNASLLKVYSKEDQDLLKLVKSYHWMGLVHIPTNGSWQWEDGSILSPNLLTIIEMQKGDCALYASSFKGYIENCSTPNTYICMQRTV
notes: NK group 2D receptor (NKG2D), human; also called Fc-tagged NKG2D
As for B1, the binding result in assay [1] is “binds”.

B2: 23ME-01473, humanized Fc effector-enhanced (afucosylated) anti-ULBP6/2/5 antibody (antibody, V domains shown)
VH: EVQLVESGGGLVQPGGSLRLSCAASGFTFSTYGFHWVRQAPGKGLEWVAYISSNSGTIDYADTVKGRFTISRDNAKNSLYLQMNSLRAEDTAVYYCARQGYGFDNWGQGTTVTVSS
VL: DIQLTQSPSSLSASVGDRVTITCSASSRVSYMNWYQQKPGKSPKIWVYGISNLASGVPSRFSGSGSGTDFTFTISSLQPEDIATYYCQQRSSHPLTFGGGTKVEIK
notes: variable domain as in the heavy chain of the Fab m2; human IgG1 heavy constant region; as the light chain of m2; Humanized by CDR grafting from a mouse hybridoma clone; also called Fc-enhanced anti-ULBP6/2/5 antibody; source: CHO FUT8-KO, transfected, purified (Protein A, SEC Superdex 200)
For B2, the results for the concentration for half-maximal inhibition (IC50) with biotinylated ULBP6-02 and with biotinylated ULBP5 were 40 pM and 310 pM, respectively. The Kd (commonly the constant that tells how readily two partners part at equilibrium) came out at 1920 pM with human ULBP5, 53 pM in assay [2] and 230 pM with human ULBP2. The binding result with human ULBP1 and with human ULBP3 was “no binding” throughout.
